Experimental data: PMC9482650, “Quantitative fragmentomics allow affinity mapping of interactomes” (Nature Communications, 2022)
Substitutions are numbered along the chain they refer to.

T1: HTRA3, P83110
T1 sequence (P83110 354-453, limits assumed, looked up): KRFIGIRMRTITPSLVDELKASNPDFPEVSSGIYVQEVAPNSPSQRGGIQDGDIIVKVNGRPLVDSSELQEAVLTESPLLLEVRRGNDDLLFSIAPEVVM

T2: LIN7C, Q9NUP9
T2 sequence (Q9NUP9 88-185, limits assumed, looked up): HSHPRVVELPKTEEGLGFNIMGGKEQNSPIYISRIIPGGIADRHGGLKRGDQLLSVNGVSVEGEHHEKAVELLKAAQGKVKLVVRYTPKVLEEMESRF

T3: NHERF3_3, Q5T2W1
T3 sequence (Q5T2W1 238-333, limits assumed, looked up): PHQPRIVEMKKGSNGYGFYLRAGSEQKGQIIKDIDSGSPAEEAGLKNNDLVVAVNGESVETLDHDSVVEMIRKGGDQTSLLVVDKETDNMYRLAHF

T4: LIN7B, Q9HAP6
T4 sequence (Q9HAP6 88-185, limits assumed, looked up): T2 sequence (Q9NUP9 88-185, limits assumed, looked up) with S2A, E13D, I35V, I40V, H65Q, K79S, K89R, S96A

T5: RHPN1, Q8TCX5
T5 sequence (Q8TCX5 508-602, limits assumed, looked up): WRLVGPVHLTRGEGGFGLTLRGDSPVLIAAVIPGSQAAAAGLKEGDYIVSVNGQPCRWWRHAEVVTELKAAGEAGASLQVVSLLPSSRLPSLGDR

T6: APBA1_2, Q02410
T6 sequence (Q02410 742-832, limits assumed, looked up): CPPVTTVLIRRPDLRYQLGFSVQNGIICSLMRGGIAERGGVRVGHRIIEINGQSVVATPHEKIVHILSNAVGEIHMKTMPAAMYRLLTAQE

T7: DLG3_3, Q92796
T7 sequence (Q92796 374-475, limits assumed, looked up): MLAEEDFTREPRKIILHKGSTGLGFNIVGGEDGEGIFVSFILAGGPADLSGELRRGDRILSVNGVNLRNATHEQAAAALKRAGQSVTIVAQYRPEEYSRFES

T8: SNTA1, Q13424
T8 sequence (Q13424 82-180, limits assumed, looked up): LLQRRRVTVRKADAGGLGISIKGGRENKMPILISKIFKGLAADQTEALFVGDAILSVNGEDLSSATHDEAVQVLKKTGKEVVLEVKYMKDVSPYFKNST


Tests used:
Assay in all cases: holdup assay
Design in all cases: key: below the threshold = too weak to quantify, mostly under pKd 3.1 to 4
Settings in all cases: plain residues with an end cap or a label only (N-terminal biotin on a linker: ado-ado)
FRMPD2_1, Q68DX3 = molecular target: FRMPD2_1, Q68DX3
HTRA3, P83110 = molecular target: T1, HTRA3, P83110
DLG1_1, Q12959 = molecular target: DLG1_1, Q12959
NHERF4_4, Q86UT5 = molecular target: NHERF4_4, Q86UT5
MAGI3_2, Q5TCQ9 = molecular target: MAGI3_2, Q5TCQ9
PARD3_3, Q8TEW0 = molecular target: PARD3_3, Q8TEW0
Inadl_10, Q8NI35 = molecular target: Inadl_10, Q8NI35
Inadl_8, Q8NI35 = molecular target: Inadl_8, Q8NI35
Inadl_6, Q8NI35 = molecular target: Inadl_6, Q8NI35
LIN7C, Q9NUP9 = molecular target: T2, LIN7C, Q9NUP9
FRMPD2_2, Q68DX3 = molecular target: FRMPD2_2, Q68DX3
Inadl_4, Q8NI35 = molecular target: Inadl_4, Q8NI35
GOPC, Q9HD26 = molecular target: GOPC, Q9HD26
MAST2, Q6P0Q8 = molecular target: MAST2, Q6P0Q8
LNX1_2, Q8TBB1 = molecular target: LNX1_2, Q8TBB1
NHERF3_3, Q5T2W1 = molecular target: T3, NHERF3_3, Q5T2W1
LIN7B, Q9HAP6 = molecular target: T4, LIN7B, Q9HAP6
GRIP2_3, Q9C0E4 = molecular target: GRIP2_3, Q9C0E4
GORASP1, Q9BQQ3 = molecular target: GORASP1, Q9BQQ3
RHPN1, Q8TCX5 = molecular target: T5, RHPN1, Q8TCX5
MAGI2_3, Q86UL8 = molecular target: MAGI2_3, Q86UL8
Inadl_1, Q8NI35 = molecular target: Inadl_1, Q8NI35
DLG2_2, Q15700 = molecular target: DLG2_2, Q15700
LNX1_3, Q8TBB1 = molecular target: LNX1_3, Q8TBB1
MAGI1_2, Q96QZ7 = molecular target: MAGI1_2, Q96QZ7
APBA1_2, Q02410 = molecular target: T6, APBA1_2, Q02410
ARHGEF12, Q9NZN5-2 = molecular target: ARHGEF12, Q9NZN5-2
DLG3_3, Q92796 = molecular target: T7, DLG3_3, Q92796
FRMPD3, Q5JV73 = molecular target: FRMPD3, Q5JV73
SNTA1, Q13424 = molecular target: T8, SNTA1, Q13424
DLG4_3, P78352 = molecular target: DLG4_3, P78352
DLG4_3, P78352, sequence (P78352 306-403): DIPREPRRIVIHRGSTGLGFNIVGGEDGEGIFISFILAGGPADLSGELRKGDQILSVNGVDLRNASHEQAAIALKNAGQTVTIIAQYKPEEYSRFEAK

GORASP1, Q9BQQ3, sequence (Q9BQQ3 1-208): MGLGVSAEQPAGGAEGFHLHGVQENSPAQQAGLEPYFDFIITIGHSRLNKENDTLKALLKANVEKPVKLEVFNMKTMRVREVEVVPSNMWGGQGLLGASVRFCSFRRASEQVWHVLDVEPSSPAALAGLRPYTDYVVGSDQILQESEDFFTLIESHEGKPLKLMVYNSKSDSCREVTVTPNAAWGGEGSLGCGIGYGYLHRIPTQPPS
GRIP2_3, Q9C0E4, sequence (Q9C0E4 238-339): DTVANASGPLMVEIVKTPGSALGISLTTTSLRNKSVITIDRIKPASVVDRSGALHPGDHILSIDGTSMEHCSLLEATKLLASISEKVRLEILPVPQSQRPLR
DLG2_2, Q15700, sequence (Q15700 189-283): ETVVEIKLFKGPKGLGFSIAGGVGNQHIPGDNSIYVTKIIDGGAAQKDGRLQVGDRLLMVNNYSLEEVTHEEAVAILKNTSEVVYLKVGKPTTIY
Inadl_4, Q8NI35, sequence (Q8NI35 547-651): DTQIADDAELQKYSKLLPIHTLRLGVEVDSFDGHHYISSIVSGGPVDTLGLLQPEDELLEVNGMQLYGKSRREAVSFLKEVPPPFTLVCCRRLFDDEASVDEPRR
Inadl_1, Q8NI35, sequence (Q8NI35 113-229): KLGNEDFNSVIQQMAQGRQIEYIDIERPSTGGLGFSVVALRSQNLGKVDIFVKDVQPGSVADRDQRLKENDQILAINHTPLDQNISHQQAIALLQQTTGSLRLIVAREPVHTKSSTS
MAST2, Q6P0Q8, sequence (Q6P0Q8 1099-1202): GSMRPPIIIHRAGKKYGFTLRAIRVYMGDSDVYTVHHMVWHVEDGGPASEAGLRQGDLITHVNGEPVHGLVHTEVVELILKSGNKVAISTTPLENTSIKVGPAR
PARD3_3, Q8TEW0, sequence (Q8TEW0 582-685): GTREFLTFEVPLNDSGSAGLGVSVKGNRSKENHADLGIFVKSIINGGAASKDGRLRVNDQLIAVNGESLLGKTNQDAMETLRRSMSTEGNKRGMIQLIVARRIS
FRMPD2_2, Q68DX3, sequence (Q68DX3 944-1038): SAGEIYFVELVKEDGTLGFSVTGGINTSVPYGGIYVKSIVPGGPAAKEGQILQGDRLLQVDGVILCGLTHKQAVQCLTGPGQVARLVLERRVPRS
LNX1_3, Q8TBB1, sequence (Q8TBB1 500-596): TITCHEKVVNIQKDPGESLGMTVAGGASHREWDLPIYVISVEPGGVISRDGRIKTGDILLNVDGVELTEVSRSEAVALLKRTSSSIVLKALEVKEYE
MAGI1_2, Q96QZ7, sequence (Q96QZ7 456-580): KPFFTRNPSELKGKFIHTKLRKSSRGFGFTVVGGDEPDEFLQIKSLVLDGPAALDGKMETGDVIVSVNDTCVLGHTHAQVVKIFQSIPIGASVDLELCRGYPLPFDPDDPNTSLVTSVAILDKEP
MAGI3_2, Q5TCQ9, sequence (Q5TCQ9 398-503): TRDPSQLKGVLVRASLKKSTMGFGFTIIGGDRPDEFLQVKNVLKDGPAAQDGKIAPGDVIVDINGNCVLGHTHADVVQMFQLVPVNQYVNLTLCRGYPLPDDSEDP
MAGI2_3, Q86UL8, sequence (Q86UL8 600-682): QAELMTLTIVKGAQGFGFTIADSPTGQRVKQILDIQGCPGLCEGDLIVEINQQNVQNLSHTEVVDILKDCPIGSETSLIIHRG
Inadl_8, Q8NI35, sequence (Q8NI35 1425-1530): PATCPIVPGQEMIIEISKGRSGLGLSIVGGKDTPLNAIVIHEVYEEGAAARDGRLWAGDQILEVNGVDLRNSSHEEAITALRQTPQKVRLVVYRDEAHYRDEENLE
NHERF4_4, Q86UT5, sequence (Q86UT5 464-550): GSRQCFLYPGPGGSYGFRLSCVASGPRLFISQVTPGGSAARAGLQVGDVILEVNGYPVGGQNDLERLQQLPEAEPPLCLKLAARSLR
Inadl_10, Q8NI35, sequence (Q8NI35 1673-1763): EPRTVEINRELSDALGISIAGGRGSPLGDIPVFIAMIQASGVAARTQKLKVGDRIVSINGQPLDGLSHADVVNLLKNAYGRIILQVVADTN
Inadl_6, Q8NI35, sequence (Q8NI35 1058-1167): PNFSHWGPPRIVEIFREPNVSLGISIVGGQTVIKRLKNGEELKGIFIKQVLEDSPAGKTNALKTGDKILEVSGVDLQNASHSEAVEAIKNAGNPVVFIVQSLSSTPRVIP
FRMPD2_1, Q68DX3, sequence (Q68DX3 770-861): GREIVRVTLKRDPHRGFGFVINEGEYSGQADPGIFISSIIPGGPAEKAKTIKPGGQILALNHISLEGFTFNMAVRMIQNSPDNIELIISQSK
LNX1_2, Q8TBB1, sequence (Q8TBB1 371-470): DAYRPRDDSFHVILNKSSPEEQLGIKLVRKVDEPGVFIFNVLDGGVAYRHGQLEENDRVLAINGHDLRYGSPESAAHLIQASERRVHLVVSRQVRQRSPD
ARHGEF12, Q9NZN5-2, sequence (Q9NZN5 other isoform, or with tags, fused parts or gaps): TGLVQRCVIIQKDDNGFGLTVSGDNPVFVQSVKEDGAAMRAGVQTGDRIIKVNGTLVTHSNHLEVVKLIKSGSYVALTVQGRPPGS
FRMPD3, Q5JV73, sequence (Q5JV73 12-100): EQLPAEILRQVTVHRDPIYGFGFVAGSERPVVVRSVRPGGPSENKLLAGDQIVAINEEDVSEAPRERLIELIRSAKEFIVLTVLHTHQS

Row | Binder | pKd (FRMPD2_1, Q68DX3) | pKd (HTRA3, P83110) | pKd (DLG1_1, Q12959) | pKd (NHERF4_4, Q86UT5) | pKd (MAGI3_2, Q5TCQ9) | pKd (PARD3_3, Q8TEW0) | pKd (Inadl_10, Q8NI35) | pKd (Inadl_8, Q8NI35) | pKd (Inadl_6, Q8NI35) | pKd (LIN7C, Q9NUP9) | pKd (FRMPD2_2, Q68DX3) | pKd (Inadl_4, Q8NI35) | pKd (GOPC, Q9HD26) | pKd (MAST2, Q6P0Q8) | pKd (LNX1_2, Q8TBB1) | pKd (NHERF3_3, Q5T2W1) | pKd (LIN7B, Q9HAP6) | pKd (GRIP2_3, Q9C0E4) | pKd (GORASP1, Q9BQQ3) | pKd (RHPN1, Q8TCX5) | also measured
1 | NISARRFTLC [FAM167B, Q9BTA0] | 4.1 | 4.54 | 4.31 | below the threshold | 4.67 | below the threshold | below the threshold | 3.54 | below the threshold | below the threshold | 3.67 | below the threshold | below the threshold | 4.89 | 4.62 | below the threshold | 4.08 | below the threshold | 3.9 | below the threshold | pKd (MAGI2_3, Q86UL8): 3.81; pKd (Inadl_1, Q8NI35): below the threshold; pKd (DLG2_2, Q15700): 3.79; pKd (LNX1_3, Q8TBB1): below the threshold; pKd (MAGI1_2, Q96QZ7): 5.12; pKd (APBA1_2, Q02410): below the threshold; pKd (ARHGEF12, Q9NZN5-2): 4.13; pKd (DLG3_3, Q92796): 4.25; pKd (FRMPD3, Q5JV73): below the threshold; pKd (SNTA1, Q13424): below the threshold; pKd (DLG4_3, P78352): 4.38
2 | ADEMICITTL [CACNA1D, Q01668] | below the threshold | below the threshold | 3.91 | 3.73 | below the threshold | 4.38 | 4.42 | 3.61 | 4.62 | below the threshold | 3.86 | below the threshold | 4.88 | 5.76 | below the threshold | below the threshold | 3.95 | below the threshold | 4 | 5.05 | pKd (MAGI2_3, Q86UL8): 3.56; pKd (Inadl_1, Q8NI35): 4.33; pKd (DLG2_2, Q15700): 3.81; pKd (LNX1_3, Q8TBB1): below the threshold; pKd (MAGI1_2, Q96QZ7): below the threshold; pKd (APBA1_2, Q02410): 4.01; pKd (ARHGEF12, Q9NZN5-2): 6.18; pKd (DLG3_3, Q92796): below the threshold; pKd (FRMPD3, Q5JV73): below the threshold; pKd (SNTA1, Q13424): 4.42; pKd (DLG4_3, P78352): below the threshold
3 | LVEEEEPMNL [HDAC7, Q8WUI4] | below the threshold | below the threshold | below the threshold | 3.78 | below the threshold | 4.23 | below the threshold | below the threshold | below the threshold | 4.12 | below the threshold | below the threshold | below the threshold | 4.08 | below the threshold | below the threshold | below the threshold | below the threshold | below the threshold | below the threshold | pKd (MAGI2_3, Q86UL8): below the threshold; pKd (Inadl_1, Q8NI35): below the threshold; pKd (DLG2_2, Q15700): below the threshold; pKd (LNX1_3, Q8TBB1): below the threshold; pKd (MAGI1_2, Q96QZ7): below the threshold; pKd (APBA1_2, Q02410): below the threshold; pKd (ARHGEF12, Q9NZN5-2): below the threshold; pKd (DLG3_3, Q92796): below the threshold; pKd (FRMPD3, Q5JV73): below the threshold; pKd (SNTA1, Q13424): below the threshold; pKd (DLG4_3, P78352): below the threshold
